Data taken from the supplement of paper PMC7877785.
± gives the uncertainty stated by the source.

Experiment: self-splicing fitness, log relative to wild type (ln ratio); higher = more splicing; Tetrahymena group I intron in knt gene, E. coli kanamycin selection, DiMSum; sequences stand for … in CUCUCU…GGAGGGAAAAGUUAUCAGGCAUGCACCUGGUAGCUAGUCUUUAAACCAAUAGAUUGCAUCGGUUUAAAAGGCAAGACCGUCAAAUUGCGGGAAAGGGGUCAACAGCCGUUCAGUACCAAGUCUCAGGGGAAACUUUGAGAUGGCCUUGCAAAGGGUAUGGUAAUAAGCUGACGGACAUGGUCCUAACCACGCAGCCAAGUCCUAAGUCAACAGAUCUUCUGUUGAUAUGGAUGCAGUUCACAGACUAAAUGUCGGUCGGGGAAGAUGUAUUCUUCUCAUAAGAUAUAGUCGGACCUCUCCUUAAUGGGAGCUAGCGGAUGAAGUGAUGCAACACUGGAGCCGCUGGGAACUAAUUUGUAUGCGAAAGUAUAUUGAUUAGUUUUGGAGUACUCGUGGUCG
Summary of the method: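 A randomised library covering all eight P1ex-region intron nucleotides was built with the intron in the knt kanamycin-resistance gene on pET-22b(+) and held in E. coli BL21(DE3). Cells were grown overnight at 37°C or 30°C on LB agar, with or without 25 μg/mL kanamycin, plus 100 μg/mL carbenicillin, 50 μM IPTG and 0.2% rhamnose, and pooled colonies were amplicon-sequenced on an Illumina HiSeq 2500. DiMSum fitness is the error-weighted combination of wild-type-normalised replicate fold changes, kanamycin versus none.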

Row | Sequence | self-splicing fitness (ln) (30 °C) | self-splicing fitness (ln) (37 °C)
1 | ACCCAGCAAUAUUACGGCCG | -2.81 ± 0.15 | -2.6 ± 0.19
2 | ACCCAGCAAUAUUACGGGAG | -1.23 ± 0.059 | -1.05 ± 0.082
3 | ACCCAGCAAUAUUACGGUAC | -2.51 ± 0.081 | -0.741 ± 0.078
4 | ACCCAGCAAUAUUACGUAUC | -2.25 ± 0.077 | -1.63 ± 0.092
5 | ACCCAGCAAUAUUACGUCCA | -1.27 ± 0.12 | -0.696 ± 0.16
6 | ACCCAGCAAUAUUACGUCGG | -2.15 ± 0.073 | -0.593 ± 0.088
7 | ACCCAGCAAUAUUACGUCUG | -3.16 ± 0.12 | -2.79 ± 0.14
8 | ACCCAGCAAUAUUACGUGAC | -1.07 ± 0.047 | -1.25 ± 0.085
9 | ACCCAGCAAUAUUACGUGCC | -1.98 ± 0.08 | -0.963 ± 0.1
10 | ACCCAGCAAUAUUACGUUAC | -3.24 ± 0.14 | -1.13 ± 0.14
11 | ACCCAGCAAUAUUACGUUCG | -3.74 ± 0.14 | -1.26 ± 0.088
12 | ACCGAGCAAUAUUACGAGUA | -3.23 ± 0.27 | -3.5 ± 0.35
13 | ACCGAGCAAUAUUACGCAUC | -1.14 ± 0.17 | –
14 | ACCGAGCAAUAUUACGCCAA | – | -2.01 ± 0.3
15 | ACCGAGCAAUAUUACGCUCG | -3.22 ± 0.32 | -1.61 ± 0.2
16 | ACCGAGCAAUAUUACGCUGA | -3.32 ± 0.24 | -1.24 ± 0.16
17 | ACCGAGCAAUAUUACGCUGC | -2.73 ± 0.16 | -2.5 ± 0.23
18 | ACCGAGCAAUAUUACGGCCU | -0.622 ± 0.086 | 0.418 ± 0.11
19 | ACCGAGCAAUAUUACGGCGG | -3.59 ± 0.3 | -2.58 ± 0.39
20 | ACCGAGCAAUAUUACGGGAU | -3.29 ± 0.13 | -2.5 ± 0.15
21 | ACCGAGCAAUAUUACGGGCA | -0.957 ± 0.1 | -0.109 ± 0.11
22 | ACCGAGCAAUAUUACGGGUG | -1.43 ± 0.061 | -1.08 ± 0.068
23 | ACCGAGCAAUAUUACGUACA | -2.64 ± 0.27 | -2.04 ± 0.27
24 | ACCGAGCAAUAUUACGUAGU | -3.62 ± 0.18 | -2.26 ± 0.15
25 | ACCGAGCAAUAUUACGUAUC | – | -2.59 ± 0.25
